{
  "source": "patent US20110097270A1",
  "about": "(published 2011)",
  "target": "hepatitis B virus (HBV) inoculum (hepatitis B virus)",
  "assay": "cell-based or functional assay",
  "data": [
    {"binder": "HBV#8 Fab (Fab, V domains shown) VH: EVQLLESGPGLVKPSQTLSLTCAVSGAFMTSDYLYWSWLRQPPGKGPEWIGGIYTTGRSHYNPSLRGRATLSVDTSKNQFSLELNSVTAADTAVYYCARGQYHNWGPSLFDYYNYYYMDVWGKGTTVTVSS VL: AAELTQSPSSLSASVGDRVTITCRASQDISNYLAWYQQKPGKAPKLLIYSASRLQSGVPSRFSGSGSGTDYTLTLSSLHPEDSATYYCHQYHSAPWTFGQGTKVEIKR", "values": [
      {"measurement": "P/N of HBsAg in cell supernatant (RIA, day 12) at MAb 0.01 µg ml^-1", "result": 82, "unit": "P/N ratio"},
      {"measurement": "P/N of HBsAg in cell supernatant (RIA, day 12) at MAb 0.1 µg ml^-1", "result": 83.3, "unit": "P/N ratio"},
      {"measurement": "P/N of HBsAg in cell supernatant (RIA, day 12) at MAb 1.0 µg ml^-1", "result": 55.8, "unit": "P/N ratio"},
      {"measurement": "P/N of HBsAg in cell supernatant (RIA, day 12) at MAb 10.0 µg ml^-1", "result": 4.1, "unit": "P/N ratio"}
    ]}
  ]
}
